The source of these data is the RNAGym collection of RNA variant scans (doi:10.1101/gr.219683.116).

Sequences and labels used below:
B1: mRNA-splicing (parent)
chain: AGUUGCUGCUGGGAGCUCCAGCACAGUGAAAUGGACAGAAGGGCAGAGCAA

In the series the parent is B1. The experiment in a line: exon inclusion enrichment index; higher = more inclusion; WT1 exon 5 minigene, HEK293.
Take G5C C6A U7C G8A U10A C44G A45G: the “exon inclusion enrichment index” value turned out to be 0.00762.
The value for G5C C6A U7C G8A U10A C44G A45C was 0.204; that for U4G G5C C6A U7C G8A U10A was 0.0964; that for U3A U4C C6A U7C C9A U10C was 4.11.
Then G2A G5C C6A U7C G8A U10A, with 0.316.
On to U4G G5A C6A U7C C9A U10C, for which the “exon inclusion enrichment index” value came out at 3.42.
Then G5A U7C G8A U10C C19G, with 1.88.
U4G G5U C6A U7A C9A U10A: the “exon inclusion enrichment index” value came to 0.0439.
The value for G5C C6U C9G U10C was 1.31; that for G5C C6A U7C G8A U10A U27C was 0.417; that for C6A U7C C9A U10C G41C G42A was 2.74.
Then G5A U7C G8A U10C G15U C16U, with 1.86.
Then G5A C6G U7G C9A A40U G41U, with 0.000481; and U4G G5C, with 0.226.
With U3G C6A U7C C9A U10C, the “exon inclusion enrichment index” value was 0.785.
Then C6A U7A C9A U10A A35U C36A, with 0.00157; and C6A U7A C9A U10A A35U C36G, with 0.054.
Regarding G5A C6U U7A G8U C9A C24U A25G, the “exon inclusion enrichment index” value was 0.165.
Then G5C C6G U7C U10C A31U, with 3.18.
For G5C C6A U7C G8A U10A G41C G42A, the “exon inclusion enrichment index” value came to 0.141.
As to G5U C9U, the “exon inclusion enrichment index” value turned out to be 0.393.
Then G5C C6G U7C U10C C16A U17C, with 4.04.
The value for G5A C6U U7A G8U C9A C22U was 0.0424; that for C6A U7A C9A U10A A14U was 0.301; that for G5C C6G U7C U10G G11C was 2.32.
Then G5A C6G U7G C9A A47C G48U, with 0.00274.
G5C C6A U7C G8A U10A G21U C22U: the “exon inclusion enrichment index” value was 0.011.
Consider G5A C6U U7A G8U C9A U32G G33U, for which the “exon inclusion enrichment index” value was 0.0122.
As to G5C C6U G8C C9U U10C C16G U17C, the “exon inclusion enrichment index” value came out at 1.12.
Take G5A U7C G8A U10C A45U: the “exon inclusion enrichment index” value came out at 2.8.
The value for G5A U7C G8A U10C A45G was 3.76; that for G5A C6G U7G C9A A14U was 0.000641.
The value for C6A U7A C9U U10A was 0.0203.
Then C6A U7C C9A U10C G15C C16G, with 3.44; and G5A C6G U7G C9A G15C, with 0.00583; and G5A C6G U7G C9A G46A A47C, with 0.00647.
For the variant G5A C6G U7G C9A G46A A47U, the “exon inclusion enrichment index” value was found to be 0.00359.
Then C6A U7A C9A U10A G21C C22G, with 1.63; and G5C C6G U7C U10C A39U A40U, with 1.88.
Then G5A C6G U7G C9A G41C G42C, with 0.0196; and C6A U7C C9A U10C G43C, with 3.07; and A35C C36G, with 0.122.
The value for G5A C6G U7G C9A A35C was 0.00244; that for G42C G43A was 0.623.
For the variant C6A U7C C9A U10C C44A A45C, the “exon inclusion enrichment index” value was found to be 4.04.
The value for G5C C6U G8C C9U U10C G41A G42A was 1.54; that for G5U G8U C9U U17C C18A was 0.0484.
The value for G5C C6U G8C C9U U10C A25C was 3.42; that for G5C C6U G8C C9U U10C A25U was 2.6.
Consider G5A C6U U7A G8U C9A G13A A14G, for which the “exon inclusion enrichment index” value is 0.0895.
The value for C6U C9A U10A was 0.198.
The value for G5C C6U G8C C9U U10C G12U G13A was 0.153.
Take G5C C6U G8C C9U U10C A35G C36U: the “exon inclusion enrichment index” value amounted to 0.016.
Turning to A39U A40G, the “exon inclusion enrichment index” value turned out to be 0.0141.
In the case of G5U G8U C9U U17C, the “exon inclusion enrichment index” value is 0.0866.
Then C6A U7C C9A U10C G41C, with 3.93.
In the case of C6A U7C C9A U10C C22A, the “exon inclusion enrichment index” value came out at 3.18.
Then G5A C6G U7G U10C, with 0.0118; and C6A U7A C9A U10A G38C A39G, with 0.734; and G5C C6U G8C C9U U10C G28U A29C, with 1.48.
As for G5C C6G U7C U10C A20U, the “exon inclusion enrichment index” value was 3.58.
Regarding G33C G34U, the “exon inclusion enrichment index” value stood at 0.0871.
With C6A U7A C9A U10A G15U C16A, the “exon inclusion enrichment index” value was found to be 0.381.
Then G8U C9G, with 0.455.
On to G8U C9U, for which the “exon inclusion enrichment index” value was 0.3.
Then G5A U7C G8A U10C A14U, with 0.895.
Consider G5C C6U G8C C9U U10C G38U A39U, for which the “exon inclusion enrichment index” value came out at 0.0819.
The value for U3C U4A G5U G8U C9U was 0.356; that for G5C C6U G8C C9U U10C C18A C19G was 0.289; that for G5A C6G G8C C9A was 0.0264.
On to G2A U3C G5C C6G U7C U10C, for which the “exon inclusion enrichment index” value was found to be 3.58.
Then G5C C6U G8C C9U U10C A39U A40C, with 2.16; and G5C C6U G8C C9U U10C A39U A40U, with 0.67.
The value for G2A U3C C6A U7C C9A U10C was 3.17.
Then A45G G46U, with 0.121; and C6A U7C C9A U10C G43U C44G, with 0.567; and G5C C6U G8C C9U U10C U27G G28A, with 2.11.
Consider G5C C6G U7A G8U U10C, for which the “exon inclusion enrichment index” value amounted to 2.93.
Then G5C C6U G8C C9U U10C U32A G33U, with 1.25; and G5C C6U G8C C9U U10C U32A G33A, with 0.758; and G5U G8U C9U A37C, with 0.465.
The value for A30C was 0.184; that for C6A U7C C9A U10C A31U U32A was 0.902.
The value for G5A C6U U7A G8U C9A U32C was 0.14.
